The values that follow are results of earlier work, collected in PMC6704176.

The target in this series is SRSRY (uPAR-derived peptide) (Homo sapiens).

The Kd is a measure of binding affinity in units of concentration. For the substance FPR1 (from UniProt P21462), the Kd is 0.03 µM.
